Experimental data as given in publication PMC10397247.
Blank lines part the entries; values can stand above or below the binder they belong to.

Assays:
4H3497-bH = target: T1, 4H3497-bH; test: two-hybrid library CCNG1;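 note: natural log of median RNA to DNA barcode read ratio; higher means stronger binding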
T1 chain: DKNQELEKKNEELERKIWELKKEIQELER

4H3613-bH = target: T2, 4H3613-bH; test: two-hybrid library CCNG1;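 note: natural log of median RNA to DNA barcode read ratio; higher means stronger binding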
T2 chain: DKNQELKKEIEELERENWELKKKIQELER

4H591-bH = target: T3, 4H591-bH; test: two-hybrid library CCNG1;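 note: natural log of median RNA to DNA barcode read ratio; higher means stronger binding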
T3 chain: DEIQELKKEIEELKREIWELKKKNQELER

4H626-bH = target: T4, 4H626-bH; test: two-hybrid library CCNG1;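 note: natural log of median RNA to DNA barcode read ratio; higher means stronger binding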
T4 chain: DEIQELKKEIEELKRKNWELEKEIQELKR

4H906-bH = target: T5, 4H906-bH; test: two-hybrid library CCNG1;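 note: natural log of median RNA to DNA barcode read ratio; higher means stronger binding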
T5 chain: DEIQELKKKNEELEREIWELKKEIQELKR

4H3628-bH = target: T6, 4H3628-bH; test: two-hybrid library CCNG1;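 note: natural log of median RNA to DNA barcode read ratio; higher means stronger binding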
T6 chain: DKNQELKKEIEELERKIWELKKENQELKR

4H3926-bH = target: T7, 4H3926-bH; test: two-hybrid library CCNG1
T7 chain: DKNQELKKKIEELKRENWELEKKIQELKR

4H2725-AA = target: T8, 4H2725-AA; test: two-hybrid library CCmax; conditions: mean of both orientations
T8 chain: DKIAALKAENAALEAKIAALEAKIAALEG

4H3697-AA = target: T9, 4H3697-AA; test: two-hybrid library CCmax; conditions: mean of both orientations
T9 chain: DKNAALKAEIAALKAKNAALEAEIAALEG

4H3165-AA = target: T10, 4H3165-AA; test: two-hybrid library CCmax; conditions: mean of both orientations
T10 chain: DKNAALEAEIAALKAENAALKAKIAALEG

4H2389-AA = target: T11, 4H2389-AA; test: two-hybrid library CCmax; conditions: mean of both orientations
T11 chain: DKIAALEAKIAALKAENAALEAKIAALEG

4H570-AA = target: T12, 4H570-AA; test: two-hybrid library CCmax; conditions: mean of both orientations
T12 chain: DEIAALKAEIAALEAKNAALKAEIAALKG

4H2109-AA = target: T13, 4H2109-AA; test: two-hybrid library CCmax
T13 chain: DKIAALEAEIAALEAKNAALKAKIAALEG

4H310-AA = target: T14, 4H310-AA; test: two-hybrid library CCmax; conditions: mean of both orientations
T14 chain: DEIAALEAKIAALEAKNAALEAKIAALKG

4H536-AA = target: T15, 4H536-AA; test: two-hybrid library CCmax; conditions: mean of both orientations
T15 chain: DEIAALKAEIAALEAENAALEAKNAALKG

4H2698-AA = target: T16, 4H2698-AA; test: two-hybrid library CCmax; conditions: mean of both orientations
T16 chain: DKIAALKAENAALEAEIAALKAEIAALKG

4H3865-AA = target: T17, 4H3865-AA; test: two-hybrid library CCmax
T17 chain: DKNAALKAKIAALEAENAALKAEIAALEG

4H2865-AA = target: T18, 4H2865-AA; test: two-hybrid library CCmax; conditions: mean of both orientations
T18 chain: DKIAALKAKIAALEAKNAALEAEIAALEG

4H3753-AA = target: T19, 4H3753-AA; test: two-hybrid library CCmax; conditions: mean of both orientations
T19 chain: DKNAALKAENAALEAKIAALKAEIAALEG

4H909-AA = target: T20, 4H909-AA; test: two-hybrid library CCmax; conditions: mean of both orientations
T20 chain: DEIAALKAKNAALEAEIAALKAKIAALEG

4H3590-AA = target: T21, 4H3590-AA; test: two-hybrid library CCmax; conditions: mean of both orientations
T21 chain: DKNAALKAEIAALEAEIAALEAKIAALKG

4H629-AA = target: T22, 4H629-AA; test: two-hybrid library CCmax; conditions: mean of both orientations
T22 chain: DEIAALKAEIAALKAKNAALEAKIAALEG

4H797-AA = target: T23, 4H797-AA; test: two-hybrid library CCmax; conditions: mean of both orientations
T23 chain: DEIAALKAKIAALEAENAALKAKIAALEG

4H3130-AA = target: T24, 4H3130-AA; test: two-hybrid library CCmax; conditions: mean of both orientations
T24 chain: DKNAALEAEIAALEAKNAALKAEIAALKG

4H2274-AA = target: T25, 4H2274-AA; test: two-hybrid library CCmax; conditions: mean of both orientations
T25 chain: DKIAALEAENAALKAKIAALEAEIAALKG

4H2330-AA = target: T26, 4H2330-AA; test: two-hybrid library CCmax; conditions: mean of both orientations
T26 chain: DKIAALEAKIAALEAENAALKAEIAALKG

4H458-AA = target: T27, 4H458-AA; test: two-hybrid library CCmax; conditions: mean of both orientations
T27 chain: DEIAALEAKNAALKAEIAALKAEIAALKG

4H2473-AA = target: T28, 4H2473-AA; test: two-hybrid library CCmax; conditions: mean of both orientations
T28 chain: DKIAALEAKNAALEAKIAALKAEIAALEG

4H3395-AA = target: T29, 4H3395-AA; test: two-hybrid library CCmax; conditions: mean of both orientations
T29 chain: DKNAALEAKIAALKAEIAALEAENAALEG

4H3410-AA = target: T30, 4H3410-AA; test: two-hybrid library CCmax; conditions: mean of both orientations
T30 chain: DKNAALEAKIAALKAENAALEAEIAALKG

4H2162-AA = target: T31, 4H2162-AA; test: two-hybrid library CCmax; conditions: mean of both orientations
T31 chain: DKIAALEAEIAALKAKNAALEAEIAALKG

4H850-AA = target: T32, 4H850-AA; test: two-hybrid library CCmax; conditions: mean of both orientations
T32 chain: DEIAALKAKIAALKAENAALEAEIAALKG

4H3016-AA = target: T33, 4H3016-AA; test: two-hybrid library CCmax; conditions: mean of both orientations
T33 chain: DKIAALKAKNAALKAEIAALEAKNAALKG

4H94-AA = target: T34, 4H94-AA; test: two-hybrid library CCmax; conditions: mean of both orientations
T34 chain: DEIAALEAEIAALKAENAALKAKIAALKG

4H3009-AA = target: T35, 4H3009-AA; test: two-hybrid library CCmax; conditions: mean of both orientations
T35 chain: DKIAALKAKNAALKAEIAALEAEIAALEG

4H3120-AA = target: T36, 4H3120-AA; test: two-hybrid library CCmax; conditions: mean of both orientations
T36 chain: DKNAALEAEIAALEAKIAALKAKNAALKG

4H891-AA = target: T37, 4H891-AA; test: two-hybrid library CCmax; conditions: mean of both orientations
T37 chain: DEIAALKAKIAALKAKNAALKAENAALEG

4H2649-AA = target: T38, 4H2649-AA; test: two-hybrid library CCmax; conditions: mean of both orientations
T38 chain: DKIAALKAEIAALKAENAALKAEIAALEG

4H2438-AA = target: T39, 4H2438-AA; test: two-hybrid library CCmax; conditions: mean of both orientations
T39 chain: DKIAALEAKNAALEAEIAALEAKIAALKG

4H710-AA = target: T40, 4H710-AA; test: two-hybrid library CCmax; conditions: mean of both orientations
T40 chain: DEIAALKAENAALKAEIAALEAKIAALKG

4H3381-AA = target: T41, 4H3381-AA; test: two-hybrid library CCmax; conditions: mean of both orientations
T41 chain: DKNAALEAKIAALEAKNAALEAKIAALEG

4H745-AA = target: T42, 4H745-AA; test: two-hybrid library CCmax; conditions: mean of both orientations
T42 chain: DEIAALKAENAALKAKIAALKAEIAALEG

4H485-AA = target: T43, 4H485-AA; test: two-hybrid library CCmax; conditions: mean of both orientations
T43 chain: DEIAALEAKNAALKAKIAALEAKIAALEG

4H930-AA = target: T44, 4H930-AA; test: two-hybrid library CCmax; conditions: mean of both orientations
T44 chain: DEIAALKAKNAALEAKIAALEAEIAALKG

4H2253-AA = target: T45, 4H2253-AA; test: two-hybrid library CCmax; conditions: mean of both orientations
T45 chain: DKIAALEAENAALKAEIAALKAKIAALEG

4H850-bH = target: T46, 4H850-bH; test: two-hybrid library CCNG1
T46 chain: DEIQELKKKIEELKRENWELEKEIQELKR

4H3858-bH = target: T47, 4H3858-bH; test: two-hybrid library CCNG1
T47 chain: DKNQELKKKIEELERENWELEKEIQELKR

4H3974-bH = target: T48, 4H3974-bH; test: two-hybrid library CCNG1
T48 chain: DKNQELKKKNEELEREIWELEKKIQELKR

4H570-bH = target: T49, 4H570-bH; test: two-hybrid library CCNG1
T49 chain: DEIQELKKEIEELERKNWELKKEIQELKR

4H3817-bH = target: T50, 4H3817-bH; test: two-hybrid library CCNG1
T50 chain: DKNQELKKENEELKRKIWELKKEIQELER

interaction score (4H3497-bH): -1.02 | interaction score (4H3613-bH): -0.463 | interaction score (4H591-bH): -1.46 | interaction score (4H626-bH): -0.895 | interaction score (4H906-bH): -0.345 | interaction score (4H3628-bH): 0.758 | interaction score (4H3926-bH): -0.573
Binder: DKNQELEKKNEELERKIWELKKEIQELER [4H3497-bH]

interaction score (4H2725-AA): 0.465 | interaction score (4H3697-AA): -0.415 | interaction score (4H3165-AA): -0.391 | interaction score (4H2389-AA): 2.49 | interaction score (4H570-AA): -0.239 | interaction score (4H2109-AA): 1.67 | interaction score (4H310-AA): 1.94 | interaction score (4H536-AA): 0.839 | interaction score (4H2698-AA): 1.53 | interaction score (4H3865-AA): -0.488 | interaction score (4H2865-AA): 2.17 | interaction score (4H3753-AA): 0.644 | interaction score (4H909-AA): -0.525 | interaction score (4H3590-AA): 1.21 | interaction score (4H629-AA): 1.09 | interaction score (4H797-AA): 1.44 | interaction score (4H3130-AA): -1.05 | interaction score (4H2274-AA): -1.47 | interaction score (4H2330-AA): 0.0427 | interaction score (4H458-AA): -1.45 | interaction score (4H2473-AA): -0.356 | interaction score (4H3395-AA): -0.63 | interaction score (4H3410-AA): 1.87 | interaction score (4H2162-AA): 0.55 | interaction score (4H850-AA): 2.07 | interaction score (4H3016-AA): -1.16 | interaction score (4H94-AA): 1.43 | interaction score (4H3009-AA): -0.233 | interaction score (4H3120-AA): -0.474 | interaction score (4H891-AA): -1.3 | interaction score (4H2649-AA): 1.26 | interaction score (4H2438-AA): -0.365 | interaction score (4H710-AA): -1.26 | interaction score (4H3381-AA): -0.283 | interaction score (4H745-AA): -0.947 | interaction score (4H485-AA): -0.723 | interaction score (4H930-AA): -0.719 | interaction score (4H2253-AA): -1.76
Binder: DKIAALEAEIAALEAKNAALKAKIAALEG [4H2109-AA]

interaction score (4H3613-bH): 0.898 | interaction score (4H850-bH): 1.37 | interaction score (4H591-bH): -2.09 | interaction score (4H3858-bH): 0.0148 | interaction score (4H626-bH): -1.94 | interaction score (4H3974-bH): -1.15 | interaction score (4H570-bH): -0.821 | interaction score (4H906-bH): -1.07 | interaction score (4H3628-bH): -0.609 | interaction score (4H3926-bH): 1.59 | interaction score (4H3817-bH): -0.0066
Binder: DKNQELKKEIEELERENWELKKKIQELER [4H3613-bH]
